Measured values: patent publication US20160222458A1 (AGENCY FOR SCIENCE TECHNOLOGY AND RESEARCH, published 2016)

Molecular target: T1, Aurora kinase A (AURKA) (UniProt O14965 1-403)
T1 construct: also called AURKA-A; STK6
T1 sequence (looked up): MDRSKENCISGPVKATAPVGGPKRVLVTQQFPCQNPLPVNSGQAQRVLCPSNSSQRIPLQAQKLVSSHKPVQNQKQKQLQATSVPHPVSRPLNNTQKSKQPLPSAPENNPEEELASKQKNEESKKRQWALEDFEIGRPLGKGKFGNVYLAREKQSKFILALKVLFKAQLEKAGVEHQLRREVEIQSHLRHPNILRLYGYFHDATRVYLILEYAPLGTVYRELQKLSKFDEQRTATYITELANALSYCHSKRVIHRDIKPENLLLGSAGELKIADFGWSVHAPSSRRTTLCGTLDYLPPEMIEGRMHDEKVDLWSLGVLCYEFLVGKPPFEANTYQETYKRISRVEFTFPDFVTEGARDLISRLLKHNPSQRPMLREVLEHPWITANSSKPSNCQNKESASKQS
Test: co-immunoprecipitation from MDA-MB-436 lysate with anti-PRR11 antibody on CNBr sepharose, Western blot
Source text: Pelleted cells were lysed using lysis buffer (commercial Bio-Rad) and estimated proteins (Bio-Rad protein assay) and loaded equal amount of protein and separated by SDS-PAGE [28-30]. After transfer, the membranes were probed with commercial rabbit polyclonal antibodies of Actin, C6orf173, AURKA, MELK and PRR11 (Cell sciences, Sigma Aldrich). Commercial mouse monoclonal antibody available for BRRN1 was obtained from Cell Signalling. Commercial rabbit polyclonal antibody of E2F1 obtained from Thermo Scientific. B-Actin (cell signalling) was used as internal control to relatively compare the expression levels of 6-TAGs genes. Secondary antibodies (anti-rabbit and anti-mouse IgG horseradish peroxidase-conjugated) were purchased from GE Healthcare Bio-Sciences AB. Proteins were visualized using an enhanced chemiluminescence (ECL) reagent kit (GE Healthcare Bio-Sciences AB). Densitometry analysis of Western Blot images was done using ImageJ open source software.
For the immunoprecipiation 5 ug of the antibodies (rabbit anti-PRR11 and mouse anti-BRRN1) were coupled to the CN-Br sepharose 4 Fast Flow according manufacturer protocol (GE Healthcare Bio-Sciences AB) and such supports were used to capture the corresponding proteins from the NP40 cell lysates (usually 1×10^7 MDA-MB-436 cells were used for one probe). […]

binding result: no binding
B1: Proline rich 11 (PRR11/FLJ11029) (other, UniProt Q96HE9 1-360, looked up)
chain: MPKFKQRRRKLKAKAERLFKKKEASHFQSKLITPPPPPPSPERVGISSIDISQSRSWLTSSWNFNFPNIRDAIKLWTNRVWSIYSWCQNCITQSLEVLKDTIFPSRICHRELYSVKQQFCILESKLCKLQEALKTISESSSCPSCGQTCHMSGKLTNVPACVLITPGDSKAVLPPTLPQPASHFPPPPPPPPLPPPPPPLAPVLLRKPSLAKALQAGPLKKDGPMQITVKDLLTVKLKKTQSLDEKRKLIPSPKARNPLVTVSDLQHVTLKPNSKVLSTRVTNVLITPGKSQMDLRKLLRKVDVERSPGGTPLTNKENMETGTGLTPVMTQALRRKFQLAHPRSPTPTLPLSTSSFDEQN
notes: also called endogenous PRR11
